Results reported in article doi:10.1101/2025.07.10.664163.

Assays:
[1] = target: Alexa-488 maleimide-labeled α-synuclein (G132C) (human) (UniProt P37840); assay: fluorescence polarisation
[2] = target: Alexa-488 maleimide-labeled α-syn^ΔCTD (Δ104-140, A18C) (human) (UniProt P37840); assay: fluorescence polarisation

Substance	Kd [1]	fold rise of Kd on removing the CTD of α-syn [2]
SARS-CoV-2 nucleocapsid protein with the NTD deleted (NP^ΔNTD) (domain or fragment)	3.67 µM	4 fold
SARS-CoV-2 nucleocapsid protein with the CTD deleted (NP^ΔCTD) (domain or fragment)	1.85 µM	3.5 fold
